# Source: patent US20240317834A1, “COMPOSITIONS AND METHODS FOR NEUROLOGICAL DISEASES” (CODA BIOTHERAPEUTICS, INC., priority 2020, published 2024)
# B1: CODA109: engineered chimeric LGIC receptor, S170T in SEQ ID NO: 33 (protein)
# chain: MRCSPGGVWLALAASLLHVSLQGEFQRKLYKELVKNYNPLERPVANDSQPLTVYFSLSLLQIMDVDEKNQVLTTNIWLQMSWTDHYLQWNVSEYPGVKTVRFPDGQIWKPDILLYNSADERFDATFHTNVLVNSSGHCQYLPPGIFKSSCPMDLKNFPMDVQTCKLKFGTWSYGGWSLDLQMQEADISGYIPNGEWDLVGIPGKRSERFYECCKEPYPDVTFTVTMRRRMGYYLIQMYIPSLLIVILSWISFWINMDAAPARVGLGITTVLTMTTQSSGSRASLPKVSYVKAIDIWMAVCLLFVFSALLEYAAVNFVSRQHKELLRFRRKRRHHKSPMLNLFQEDEAGEGRFNFSAYGMGPACLQAKDGISVKGANNSNTTNPPPAPSKSPEEMRKLFIQRAKKIDKISRIGFPMAFLIFNMFYWIIYKIVRREDVHNQ
# modifications: synthetic sequence of chimeric LGIC
# System: Lenti-X 293T cells
# Assay: YFP fluorescence quenching anion reporter plate reader assay of engineered receptors stimulated with acetylcholine or a non-native ligand
# Assay type: cell-based
# Procedure, shortened: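 YFP quench was followed for about 1 min 43 s after ligand delivered in iodide-based ECS, pH 7.2. Values are end-of-read fluorescence (last 10 s) divided by the pre-ligand baseline (15 s). Cells were LX293T, transfected with receptor DNA a day before the assay.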
molecule,measurement,setting,value
B1,YFP fluorescence quenching using CNL001,"1 nM CNL001, first column",19.755%
same,YFP fluorescence quenching using CNL001,"1 nM CNL001, second column",65.484%
same,YFP fluorescence quenching using TC-5619/Bradanicline,3 nM brd,70.58%
same,YFP fluorescence quenching using Varenicline,"3 nM var, first column",−20.96
same,YFP fluorescence quenching using Varenicline,"3 nM var, second column",−19.953
same,YFP fluorescence quenching using CNL001,"10 nM CNL001, first column",79.024%
same,YFP fluorescence quenching using CNL001,"10 nM CNL001, second column",81.563%
same,YFP fluorescence quenching using TC-5619/Bradanicline,30 nM brd,80.71%
same,YFP fluorescence quenching using Facinicline,30 nM fac,76.45
same,YFP fluorescence quenching using Varenicline,"30 nM var, first column",−16.094
same,YFP fluorescence quenching using Varenicline,"30 nM var, second column",−21.502
same,YFP fluorescence quenching using CNL001,"50 nM CNL001, first column",81.926%
same,YFP fluorescence quenching using CNL001,"50 nM CNL001, second column",83.092%
same,YFP fluorescence quenching using ABT-126,50 nM abt,55.83%
same,YFP fluorescence quenching using CNL001,"100 nM CNL001, first column",83%
same,YFP fluorescence quenching using CNL001,"100 nM CNL001, second column",83.811%
same,YFP fluorescence quenching using CNL002,100 nM CNL002,73.48%
same,YFP fluorescence quenching using ABT-126,100 nM abt,68.89%
same,YFP fluorescence quenching using AZD-0328,100 nM azd0328,84.01%
same,YFP fluorescence quenching using Facinicline,100 nM fac,82.45
same,YFP fluorescence quenching using ABT-126,300 nM abt,72.52%
same,YFP fluorescence quenching using AZD-0328,300 nM azd0328,87.08%
same,YFP fluorescence quenching using TC-5619/Bradanicline,300 nM brd,80.66%
same,YFP fluorescence quenching using Facinicline,300 nM fac,71.09
same,YFP fluorescence quenching using Varenicline,"300 nM var, first column",64.373
same,YFP fluorescence quenching using Varenicline,"300 nM var, second column",71.198
same,YFP fluorescence quenching using Varenicline,"500 nM var, first column",71.892
same,YFP fluorescence quenching using Varenicline,"500 nM var, second column",73.53
same,YFP fluorescence quenching using CNL001,"1 uM CNL001, first column",81.834%
same,YFP fluorescence quenching using CNL001,"1 uM CNL001, second column",83.858%
same,YFP fluorescence quenching using CNL002,1 uM CNL002,70.03%
same,YFP fluorescence quenching using ABT-126,1 uM abt,70.96%
same,YFP fluorescence quenching using TC-6987,1 uM tc6987,71.45
same,YFP fluorescence quenching using Varenicline,"1 uM var, first column",75.461
same,YFP fluorescence quenching using Varenicline,"1 uM var, second column",78.578
same,YFP fluorescence quenching using TC-6987,10 uM tc6987,71.04
same,YFP fluorescence quenching using AZD-0328,30 uM azd0328,87.27%
same,YFP fluorescence quenching using Facinicline,30 uM fac,69.41
same,YFP fluorescence quenching using TC-6987,500 uM tc6987,66.2
same,"percent quench of YFP fluorescence, 10 uM ach",acetylcholine 10 uM,82.91%
same,"percent quench of YFP fluorescence, 30 uM ach",acetylcholine 30 uM,82.53%
same,"percent quench of YFP fluorescence, 50 uM ach",acetylcholine 50 uM,82.11%
same,"percent quench of YFP fluorescence, 100 uM ach",acetylcholine 100 uM,83.68%
same,"percent quench of YFP fluorescence, 1 mM ach",acetylcholine 1 mM,69.89%
same,"percent quench of YFP fluorescence, 3 mM ach",acetylcholine 3 mM,78.12%
